The text below walks through data of PMC11116813.

pKd: −log10 of the molar value.

Experiment [1] has as its target Chp2 (Schizosaccharomyces pombe) (UniProt O42934). Particulars: cited from earlier work.
The target in experiment [2] is full-length human HP1α WT (hHP1α), recombinant (human) (UniProt P45973). The experiment in a line: ITC; iTC200, full-length HP1α dimer in the cell (60 μM for hINCENP, 80 μM for hSgo1), 600 μM hINCENP or 800 μM hSgo1 fragment in the syringe, 25°C, 20 mM NaPO4 pH 7.0, 150 mM NaCl, 1 mM DTT (Fig. 6A, Fig. S5A); one-site model.
full-length human HP1α WT (hHP1α), recombinant (human), sequence (P45973 whole entry, the tested form may be a part): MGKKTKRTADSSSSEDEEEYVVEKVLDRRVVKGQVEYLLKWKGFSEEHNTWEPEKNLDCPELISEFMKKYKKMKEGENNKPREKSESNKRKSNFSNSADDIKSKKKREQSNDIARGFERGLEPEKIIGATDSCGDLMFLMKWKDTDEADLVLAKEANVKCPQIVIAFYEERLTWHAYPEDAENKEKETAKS

Mit1, sequence (Q9P793 whole entry): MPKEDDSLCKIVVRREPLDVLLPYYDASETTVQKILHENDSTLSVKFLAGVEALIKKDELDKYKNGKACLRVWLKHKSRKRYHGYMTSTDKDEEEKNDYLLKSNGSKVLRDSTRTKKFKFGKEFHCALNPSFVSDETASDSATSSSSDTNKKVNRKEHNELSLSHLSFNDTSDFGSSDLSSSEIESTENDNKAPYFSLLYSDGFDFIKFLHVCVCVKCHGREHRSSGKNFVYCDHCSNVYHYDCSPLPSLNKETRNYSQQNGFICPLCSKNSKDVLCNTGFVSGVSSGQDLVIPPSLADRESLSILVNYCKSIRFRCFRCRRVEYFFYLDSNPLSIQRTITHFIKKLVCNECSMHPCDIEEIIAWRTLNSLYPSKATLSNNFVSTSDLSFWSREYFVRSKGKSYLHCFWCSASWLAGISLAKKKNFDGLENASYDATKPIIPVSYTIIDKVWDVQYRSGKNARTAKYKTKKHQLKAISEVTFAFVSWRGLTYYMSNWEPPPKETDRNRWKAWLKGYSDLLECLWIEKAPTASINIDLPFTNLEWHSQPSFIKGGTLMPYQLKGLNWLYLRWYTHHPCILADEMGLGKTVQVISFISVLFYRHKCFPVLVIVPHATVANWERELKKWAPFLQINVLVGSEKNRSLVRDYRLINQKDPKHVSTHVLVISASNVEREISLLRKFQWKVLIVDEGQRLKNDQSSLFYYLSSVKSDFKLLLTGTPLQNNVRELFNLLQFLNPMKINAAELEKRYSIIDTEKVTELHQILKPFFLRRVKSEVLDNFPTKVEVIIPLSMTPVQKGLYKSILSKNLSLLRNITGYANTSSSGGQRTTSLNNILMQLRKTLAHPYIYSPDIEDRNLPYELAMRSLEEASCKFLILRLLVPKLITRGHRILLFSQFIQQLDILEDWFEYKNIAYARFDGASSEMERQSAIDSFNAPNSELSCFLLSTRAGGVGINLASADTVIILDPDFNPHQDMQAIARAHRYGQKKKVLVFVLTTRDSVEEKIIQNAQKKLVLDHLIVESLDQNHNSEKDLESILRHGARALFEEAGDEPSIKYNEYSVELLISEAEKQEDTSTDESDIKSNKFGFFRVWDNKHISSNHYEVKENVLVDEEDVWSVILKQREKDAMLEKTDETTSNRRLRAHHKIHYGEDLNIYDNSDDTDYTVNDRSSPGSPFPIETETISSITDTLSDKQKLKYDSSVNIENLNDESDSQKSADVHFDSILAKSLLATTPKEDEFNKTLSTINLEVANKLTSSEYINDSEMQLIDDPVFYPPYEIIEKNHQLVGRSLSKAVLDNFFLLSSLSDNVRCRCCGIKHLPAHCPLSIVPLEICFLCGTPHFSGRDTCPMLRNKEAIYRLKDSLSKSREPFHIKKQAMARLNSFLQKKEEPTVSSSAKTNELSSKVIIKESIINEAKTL
Chp2 (Schizosaccharomyces pombe), sequence (O42934 whole entry, the tested form may be a part): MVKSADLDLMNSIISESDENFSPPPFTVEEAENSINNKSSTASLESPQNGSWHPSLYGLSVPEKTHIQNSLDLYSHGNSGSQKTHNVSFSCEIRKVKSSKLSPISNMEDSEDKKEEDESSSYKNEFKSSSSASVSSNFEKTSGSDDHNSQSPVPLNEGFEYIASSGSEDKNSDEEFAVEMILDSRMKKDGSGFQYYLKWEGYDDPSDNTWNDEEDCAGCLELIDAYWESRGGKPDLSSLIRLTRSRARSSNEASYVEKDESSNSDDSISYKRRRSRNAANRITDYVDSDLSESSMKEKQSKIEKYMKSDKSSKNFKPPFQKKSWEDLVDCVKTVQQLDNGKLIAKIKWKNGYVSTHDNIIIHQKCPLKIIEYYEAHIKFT

Usually pKd stands for the Kd on a negative log10 scale, so that one unit is a factor of ten. Mit1 (from UniProt Q9P793): the pKd in experiment [1] was 8.59.

Turning to “human INCENP fragment (121-210) E180A (from UniProt Q9NQS7 121-210) (domain or fragment)”, in experiment [2], the pKd was 6.09.

Turning to “human INCENP fragment (121-210) WT used in Fig. 6A (from UniProt Q9NQS7 121-210) (domain or fragment)”, in experiment [2], the pKd was 7.22.
